Reference: article PMC9131517, “Enzymatic N-Allylation of Primary and Secondary Amines Using Renewable Cinnamic Acids Enabled by Bacterial Reductive Aminases” (ACS Sustainable Chemistry & Engineering, 2022)

Assays:
Experiment in all cases: initial rate of NADPH consumption
Format in all cases: biochemical, compost metagenome
Conditions in all cases: 80 mM cyclopropylamine, 0.3 mM NADPH, pH 7.5 (100 mM NaPi), 30 °C
[1] = substrate: O=C/C=C/c1ccccc1
From the text: (§1) initial rate of NADPH consumption on BacRedAm

[2] = substrate: O=C1CCCCC1
From the text: as §1

[3] = substrate: O=CCCc1ccccc1
From the text: as §1

B1: BacRedAm (compost metagenome) (protein)
chain: MREPIVSAHTERAVESRGADRGSAVTVIGLGSMGSALAGAVLEAGYPTTVWNRTAGKAEPLVRRGAARAATVAEAVSASPTVIACVLDYRALREILSTAGDALAGRTVVNLTNGTPTEARETAAWVEGHGARYLDGGIMAVPEMIGGAESLVLYSGSAEAFETVEPVLRRFGSAMYLGADPGLASLHDLALLAGMYGLFAGFLHAVALVGTEGVRATEFTSSLLIPWLQAMTATLPEAAAQIDAGDYAATGSRLDMQAVALANIVEASRSQGIRPDLMLPIQALVERRVAKGGGGEDIAAVVEEVRG
notes: recombinant, expressed in E. coli BL21, purified
[1]
  Km: 2580 µM
  kcat: 0.11 s⁻¹
[2]
  Km: 13320 µM
  kcat: 5.12 s⁻¹
[3]
  Km: 2980 µM
  kcat: 1.45 s⁻¹
